Assay [1] addresses Cx36 K238E-E230K (human) (UniProt Q9UKL4).
Assay [2] concerns the target Cx36 E230K (human) (UniProt Q9UKL4).
Assay [3] addresses Cx36 K238Q (human) (UniProt Q9UKL4).
Assay [4] concerns the target Cx36 K238A (human) (UniProt Q9UKL4).
Assay [5] concerns the target Cx36 E239K (human) (UniProt Q9UKL4).
Assay [6] has as its target Cx36 E230K-E239K (human) (UniProt Q9UKL4).
For assay [7], the target named is Connexin36 (Cx36), human, wildtype (human) (UniProt Q9UKL4).
Assay [8] concerns the target Cx36 K238E-E239K (human) (UniProt Q9UKL4).
Assay [9] deals with Cx26, human (human) (UniProt P29033).
Assay [10] addresses Cx45, human (human) (UniProt P36383).
The target of assay [11] is Cx31.3, human (human) (UniProt Q8NFK1).
Assay [12] addresses Cx32 (human) (UniProt P08034).
Assay [13] deals with Cx43, human (human) (UniProt P17302).
For assay [14], the target named is Cx30, human (human) (UniProt O95452).
Assay [15] addresses T1, Cx47, human (human) (UniProt Q5T442).
T1 sequence: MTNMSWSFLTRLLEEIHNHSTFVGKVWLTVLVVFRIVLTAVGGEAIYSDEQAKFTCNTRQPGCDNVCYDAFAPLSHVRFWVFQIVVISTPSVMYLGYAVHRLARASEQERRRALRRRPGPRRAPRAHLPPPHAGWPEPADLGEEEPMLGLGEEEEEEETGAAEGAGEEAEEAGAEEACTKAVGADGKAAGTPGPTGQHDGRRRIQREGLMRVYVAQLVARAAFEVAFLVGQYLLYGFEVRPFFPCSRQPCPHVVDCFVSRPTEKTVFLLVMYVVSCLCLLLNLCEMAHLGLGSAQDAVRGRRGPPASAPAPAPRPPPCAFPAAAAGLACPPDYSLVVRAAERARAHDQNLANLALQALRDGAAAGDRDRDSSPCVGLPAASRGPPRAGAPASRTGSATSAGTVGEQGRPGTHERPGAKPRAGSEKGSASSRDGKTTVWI

Assay [16] addresses Cx36 K238E-E230K-E239K-E241K (human) (UniProt Q9UKL4).
Assay [17] deals with Cx36 K238E-E230K-E239K (human) (UniProt Q9UKL4).
Assay [18] has as its target Cx36 K238E (human) (UniProt Q9UKL4).
For assay [19], the target named is Cx36 E230K-E239K-E241K (human) (UniProt Q9UKL4).
Assay [20] addresses Cx36 E241K (human) (UniProt Q9UKL4).
Assay [21] has as its target Cx36 E241A (human) (UniProt Q9UKL4).

Connexin36 (Cx36), human, wildtype, sequence (Q9UKL4 whole entry): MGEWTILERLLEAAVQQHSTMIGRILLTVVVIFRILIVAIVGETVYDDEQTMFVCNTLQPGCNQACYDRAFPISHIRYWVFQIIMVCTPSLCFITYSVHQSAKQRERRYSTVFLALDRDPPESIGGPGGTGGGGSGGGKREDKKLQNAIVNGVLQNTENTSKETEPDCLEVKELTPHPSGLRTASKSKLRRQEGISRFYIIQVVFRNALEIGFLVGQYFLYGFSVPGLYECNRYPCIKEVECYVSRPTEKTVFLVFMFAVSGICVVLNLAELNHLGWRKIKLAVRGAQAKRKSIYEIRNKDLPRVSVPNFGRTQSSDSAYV
Cx43, human (human), sequence (P17302 whole entry): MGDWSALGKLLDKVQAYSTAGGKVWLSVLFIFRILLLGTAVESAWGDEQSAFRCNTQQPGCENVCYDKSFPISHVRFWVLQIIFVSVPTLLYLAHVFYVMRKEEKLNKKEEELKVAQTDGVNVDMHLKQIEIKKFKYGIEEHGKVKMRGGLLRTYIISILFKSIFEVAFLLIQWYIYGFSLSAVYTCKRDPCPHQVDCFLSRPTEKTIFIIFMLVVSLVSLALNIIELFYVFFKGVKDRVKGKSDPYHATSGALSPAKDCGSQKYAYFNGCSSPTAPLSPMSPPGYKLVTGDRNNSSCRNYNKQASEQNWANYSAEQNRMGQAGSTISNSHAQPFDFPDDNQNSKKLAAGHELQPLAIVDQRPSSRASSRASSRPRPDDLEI
Cx43, human, sequence (P17302 whole entry): as above
Cx30, human, sequence (O95452 whole entry): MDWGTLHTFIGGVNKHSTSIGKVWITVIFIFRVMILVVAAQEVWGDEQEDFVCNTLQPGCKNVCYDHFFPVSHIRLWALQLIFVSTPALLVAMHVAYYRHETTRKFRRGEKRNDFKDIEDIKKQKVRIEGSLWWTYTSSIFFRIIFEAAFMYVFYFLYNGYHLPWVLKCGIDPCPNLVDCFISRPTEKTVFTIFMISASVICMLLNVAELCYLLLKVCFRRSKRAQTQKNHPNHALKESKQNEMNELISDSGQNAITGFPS
Cx30, human (human), sequence (O95452 whole entry): as above
Cx32 (human), sequence (P08034 whole entry): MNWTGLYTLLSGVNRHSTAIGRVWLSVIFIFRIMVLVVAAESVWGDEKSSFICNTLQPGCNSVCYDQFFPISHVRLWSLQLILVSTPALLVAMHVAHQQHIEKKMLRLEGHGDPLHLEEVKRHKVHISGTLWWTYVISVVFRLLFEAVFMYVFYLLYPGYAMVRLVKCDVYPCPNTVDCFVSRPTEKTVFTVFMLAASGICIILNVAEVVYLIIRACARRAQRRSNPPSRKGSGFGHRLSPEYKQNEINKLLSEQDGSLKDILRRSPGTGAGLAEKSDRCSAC
Cx32, sequence (P08034 whole entry): as above
Cx31.3, human (human), sequence (Q8NFK1 whole entry): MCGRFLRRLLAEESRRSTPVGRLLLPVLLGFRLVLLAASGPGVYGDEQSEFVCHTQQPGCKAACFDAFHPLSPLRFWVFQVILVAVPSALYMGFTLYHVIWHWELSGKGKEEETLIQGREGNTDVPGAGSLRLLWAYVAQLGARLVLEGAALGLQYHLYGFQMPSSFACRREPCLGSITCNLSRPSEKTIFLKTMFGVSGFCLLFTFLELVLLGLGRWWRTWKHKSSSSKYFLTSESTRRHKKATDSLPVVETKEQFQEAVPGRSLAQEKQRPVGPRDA
Cx31.3, human, sequence (Q8NFK1 whole entry): as above
Cx45, human (human), sequence (P36383 whole entry): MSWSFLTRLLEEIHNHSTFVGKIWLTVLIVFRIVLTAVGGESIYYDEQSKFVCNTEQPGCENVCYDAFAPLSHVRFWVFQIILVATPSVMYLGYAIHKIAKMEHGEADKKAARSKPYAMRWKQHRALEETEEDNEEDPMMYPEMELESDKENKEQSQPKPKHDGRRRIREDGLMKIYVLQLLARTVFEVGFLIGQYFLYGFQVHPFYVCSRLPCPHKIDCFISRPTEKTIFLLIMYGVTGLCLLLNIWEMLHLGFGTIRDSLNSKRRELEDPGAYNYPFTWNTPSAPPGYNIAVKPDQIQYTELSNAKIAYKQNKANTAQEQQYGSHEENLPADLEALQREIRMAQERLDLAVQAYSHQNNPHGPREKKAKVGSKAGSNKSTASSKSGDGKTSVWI
Cx45, human, sequence (P36383 whole entry): as above

As for “Cx36 K238E-E230K (from UniProt Q9UKL4 1-321) (natural protein)”, the median junctional conductance (Gj), dual whole-cell patch clamp of DKO HEK293 cell pairs, homotypic; IQR 0–0; 15 pairs in assay [1] is 0 nS.

Take “Connexin36 (Cx36), human, wildtype (from UniProt Q9UKL4 1-321) (natural protein)”: in assay [2], the median junctional conductance (Gj), dual whole-cell patch clamp of DKO HEK293 cell pairs, heterotypic; IQR 0.04–0.22; 15 pairs stood at 0.14 nS. In addition, the median junctional conductance (Gj), dual whole-cell patch clamp of DKO HEK293 cell pairs, heterotypic; IQR 0–0; 16 pairs in assay [1] is 0 nS. This substance also gave a median junctional conductance (Gj), dual whole-cell patch clamp of DKO HEK293 cell pairs, heterotypic; IQR 0.01–0.31; 16 pairs in assay [3] of 0.13 nS. The same substance showed a median junctional conductance (Gj), dual whole-cell patch clamp of DKO HEK293 cell pairs, heterotypic; IQR 0.05–0.24; 17 pairs in assay [4] of 0.16 nS. Further, the median junctional conductance (Gj), dual whole-cell patch clamp of DKO HEK293 cell pairs, heterotypic; IQR 0.08–0.19; 18 pairs in [5] was 0.13 nS. The substance further displayed a median junctional conductance (Gj), dual whole-cell patch clamp of DKO HEK293 cell pairs, heterotypic; IQR 0.11–0.41; 19 pairs in [6] of 0.22 nS. The substance also displayed a median junctional conductance (Gj), dual whole-cell patch clamp of DKO HEK293 cell pairs, homotypic; IQR 0.02–0.19; 38 pairs in assay [7] of 0.1 nS. The same substance registered a median junctional conductance (Gj), dual whole-cell patch clamp of DKO HEK293 cell pairs, heterotypic; IQR 0–0.10; 15 pairs in assay [8] of 0.06 nS. Besides, the median junctional conductance (Gj), dual whole-cell patch clamp of DKO HEK293 cell pairs, heterotypic; IQR 0–0; 19 pairs in [9] and in assay [12] was 0 nS in each case. This substance also returned a median junctional conductance (Gj), dual whole-cell patch clamp of DKO HEK293 cell pairs, heterotypic; IQR 0–0; 26 pairs in [10] of 0 nS. The median junctional conductance (Gj), dual whole-cell patch clamp of DKO HEK293 cell pairs, heterotypic; IQR 0–0; 15 pairs in [11] and in [14] was 0 nS in each case. In addition, the median junctional conductance (Gj), dual whole-cell patch clamp of DKO HEK293 cell pairs, heterotypic; IQR 0–0; 25 pairs in assay [13] was found to be 0 nS. The substance also came in with a median junctional conductance (Gj), dual whole-cell patch clamp of DKO HEK293 cell pairs, heterotypic; IQR 0–0; 21 pairs in assay [15] of 0 nS.

“Cx36 K238E-E230K-E239K-E241K (from UniProt Q9UKL4 1-321) (natural protein)” had a median junctional conductance (Gj), dual whole-cell patch clamp of DKO HEK293 cell pairs, homotypic; IQR 0–0; 16 pairs in [16] of 0 nS.

“Cx36 K238E-E230K-E239K (from UniProt Q9UKL4 1-321) (natural protein)” returned a median junctional conductance (Gj), dual whole-cell patch clamp of DKO HEK293 cell pairs, homotypic; IQR 0.08–0.14; 16 pairs in assay [17] of 0.12 nS.

For the substance “Cx36 E239K (from UniProt Q9UKL4 1-321) (natural protein)”, in assay [5], the median junctional conductance (Gj), dual whole-cell patch clamp of DKO HEK293 cell pairs, homotypic; IQR 0.04–0.31; 30 pairs worked out at 0.12 nS. The median junctional conductance (Gj), dual whole-cell patch clamp of DKO HEK293 cell pairs, heterotypic; IQR 0–0.12; 21 pairs in [6] came to 0.05 nS. The substance also yielded a median junctional conductance (Gj), dual whole-cell patch clamp of DKO HEK293 cell pairs, heterotypic; IQR 0.08–0.2; 23 pairs in assay [18] of 0.11 nS.

Take “Cx30, human (from UniProt O95452 1-261) (natural protein)”: the median junctional conductance (Gj), dual whole-cell patch clamp of DKO HEK293 cell pairs, homotypic; IQR 0.43–21.28; 16 pairs in [14] was 6.55 nS.

In assay [19], “Cx36 K238E (from UniProt Q9UKL4 1-321) (natural protein)” showed a median junctional conductance (Gj), dual whole-cell patch clamp of DKO HEK293 cell pairs, heterotypic; IQR 0–0; 18 pairs of 0 nS. In addition, the median junctional conductance (Gj), dual whole-cell patch clamp of DKO HEK293 cell pairs, heterotypic; IQR 0–0; 15 pairs in assay [1] and in [8] was 0 nS each time. The same substance returned a median junctional conductance (Gj), dual whole-cell patch clamp of DKO HEK293 cell pairs, heterotypic; IQR 0–0; 19 pairs in assay [20] of 0 nS. In assay [18], the median junctional conductance (Gj), dual whole-cell patch clamp of DKO HEK293 cell pairs, homotypic; IQR 0–0; 19 pairs is 0 nS.

“Cx36 E241K (from UniProt Q9UKL4 1-321) (natural protein)”: in assay [20], the median junctional conductance (Gj), dual whole-cell patch clamp of DKO HEK293 cell pairs, homotypic; IQR 0–0; 25 pairs was 0 nS.

On to “Cx32 (from UniProt P08034 1-283) (natural protein)”, for which, in [12], the median junctional conductance (Gj), dual whole-cell patch clamp of DKO HEK293 cell pairs, homotypic; IQR 0–16.23; 17 pairs was 0.85 nS.

With “Cx36 K238A (from UniProt Q9UKL4 1-321) (natural protein)”, the median junctional conductance (Gj), dual whole-cell patch clamp of DKO HEK293 cell pairs, homotypic; IQR 0–0; 23 pairs in [4] was 0 nS.

In the case of “Cx31.3, human (from UniProt Q8NFK1 1-279) (natural protein)”, in assay [11], the median junctional conductance (Gj), dual whole-cell patch clamp of DKO HEK293 cell pairs, homotypic; IQR 0–0; 17 pairs came out at 0 nS.

In assay [10], “Cx45, human (from UniProt P36383 1-396) (natural protein)” yielded a median junctional conductance (Gj), dual whole-cell patch clamp of DKO HEK293 cell pairs, homotypic; IQR 0.5–19.6; 29 pairs of 6.8 nS.

Consider “Cx36 E230K-E239K-E241K (from UniProt Q9UKL4 1-321) (natural protein)”, for which the median junctional conductance (Gj), dual whole-cell patch clamp of DKO HEK293 cell pairs, homotypic; IQR 0–0; 12 pairs in assay [19] turned out to be 0 nS.

Substance “Cx36 K238E-E239K (from UniProt Q9UKL4 1-321) (natural protein)” registered a median junctional conductance (Gj), dual whole-cell patch clamp of DKO HEK293 cell pairs, homotypic; IQR 0–0; 15 pairs in [8] of 0 nS.

Take “Cx36 E230K-E239K (from UniProt Q9UKL4 1-321) (natural protein)”: in assay [1], the median junctional conductance (Gj), dual whole-cell patch clamp of DKO HEK293 cell pairs, heterotypic; IQR 0–0.18; 15 pairs turned out to be 0.09 nS. Moreover, the median junctional conductance (Gj), dual whole-cell patch clamp of DKO HEK293 cell pairs, homotypic; IQR 0–0; 20 pairs in assay [6] turned out to be 0 nS.

Consider “Cx36 K238Q (from UniProt Q9UKL4 1-321) (natural protein)”, for which the median junctional conductance (Gj), dual whole-cell patch clamp of DKO HEK293 cell pairs, homotypic; IQR 0–0; 16 pairs in assay [3] turned out to be 0 nS.

In [13], “Cx43, human (from UniProt P17302 1-382) (natural protein)” yielded a median junctional conductance (Gj), dual whole-cell patch clamp of DKO HEK293 cell pairs, homotypic; IQR 0–9.93; 17 pairs of 0.46 nS.

As to “Cx36 E241A (from UniProt Q9UKL4 1-321) (natural protein)”, in [21], the median junctional conductance (Gj), dual whole-cell patch clamp of DKO HEK293 cell pairs, homotypic; IQR 0.03–0.19; 18 pairs was 0.09 nS. The substance further showed a median junctional conductance (Gj), dual whole-cell patch clamp of DKO HEK293 cell pairs, heterotypic; IQR 0–0; 16 pairs in [6] of 0 nS.

Regarding “Cx36 E230K (from UniProt Q9UKL4 1-321) (natural protein)”, in [2], the median junctional conductance (Gj), dual whole-cell patch clamp of DKO HEK293 cell pairs, homotypic; IQR 0–0.14; 28 pairs was 0.01 nS. In [6], the median junctional conductance (Gj), dual whole-cell patch clamp of DKO HEK293 cell pairs, heterotypic; IQR 0–0; 20 pairs came to 0 nS. Moreover, the median junctional conductance (Gj), dual whole-cell patch clamp of DKO HEK293 cell pairs, heterotypic; IQR 0.05–0.22; 20 pairs in assay [18] was 0.1 nS.

The values above are taken from PMC13269782.
